# Measurements taken from paper PMC7376121, “In-Lipid Structure of Pressure-Sensitive Domains Hints Mechanosensitive Channel Functional Diversity” (Biophysical Journal, 2020).
# Target: the molecule itself
# Experiment: PELDOR/DEER; spin-labelled single-cysteine channel in DDM detergent solution (50 mM sodium phosphate pH 7.5, 300 mM NaCl, 0.05% DDM), diluted 1:1 with deuterated ethylene glycol, flash frozen; Q band, 50 K; distances between the labels of the subunits of one channel
Protein,stoichiometry N,binding result
"Escherichia coli MscL F93C, MTSSL spin-labelled (EcMscL F93R1) (natural protein, UniProt P0A742 1-136, looked up, MTSSL spin label on the cysteine at 93 (R1), Mechanosensitive channel of large conductance (MscL), Escherichia coli; cysteine mutant on vector pET-52b; R1 denotes the spin-labelled cysteine; also called EcF93R1; source: E. coli BL21 (DE3), purified (Ni-NTA, SEC) in DDM, MTSSL spin-labelled; also reconstituted in MSP1D1 DMPC nanodisks) MSIIKEFREFAMRGNVVDLAVGVIIGAAFGKIVSSLVADIIMPPLGLLIGGIDFKQFAVTLRDAQGDIPAVVMHYGVFIQNVFDFLIVAFAICMAIKLINKLNRKKEEPAAAPAPTKEEVLLTEIRDLLKEQNNRS",5,
"Escherichia coli MscL M94C, MTSSL spin-labelled (EcMscL M94R1) (natural protein, UniProt P0A742 1-136, looked up, MTSSL spin label on the cysteine at 94 (R1), Mechanosensitive channel of large conductance (MscL), Escherichia coli; cysteine mutant on vector pET-52b; R1 denotes the spin-labelled cysteine; possibly a pentamer in DDM; also called EcM94R1; EcM94C; source: E. coli BL21 (DE3), purified (Ni-NTA, SEC) in DDM, MTSSL spin-labelled; also reconstituted in MSP1D1 DMPC nanodisks) MSIIKEFREFAMRGNVVDLAVGVIIGAAFGKIVSSLVADIIMPPLGLLIGGIDFKQFAVTLRDAQGDIPAVVMHYGVFIQNVFDFLIVAFAIFCAIKLINKLNRKKEEPAAAPAPTKEEVLLTEIRDLLKEQNNRS",,binds
